Test results from the RNAGym collection of RNA variant scans (doi:10.1021/acssynbio.7b00057).

B1: Pistol ribozyme (parent)
chain: GGGUCGUUGUUCCAUAAUCGCGUGGAUAUGGCACGCAAGUUUCUACCGGGCACCGUAAAUGUCCGACUGGAGCCGUUCGGGCGGCUAUAAACAGACCUCAGGCCCGAAGCGUGGCGGCACCUGCCGCCGGUGGUAAAAAAGAUCGGAAGAGCACACGUCU

Variants of: B1
Experiment: aptazyme ON/OFF ratio, guanine; higher = stronger switching; co-transcriptional cleavage with and without guanine
In the case of GGGUCGCGUGUGCAUAAUCGCGUGGAUAUGGCACGCAAGUUUCUACCGGGCACCGUAAAUGUCCGACUGGAGCCGUUCGGGCGGCUAUAAACAGACCUCAGGCCCGAAGCGUGGCGGCACCUGCCGCCGGUGGUAAAAAAGAUCGGAAGAGCACACGUCU [U7C U8G G9U U10G C12G], the “aptazyme ON/OFF ratio” value is reported as 1.08. For GGGUCGCGUGUUCAUAAUCGCGUGGAUAUGGCACGCAAGUUUCUACCGGGCACCGUAAAUGUCCGACUGGAGCCGUUCGGGCGGCUAUAAACAGACCUCAGGCCCGAAGCGUGGCGGCACCUGCCGCCGGUGGUAAAAAAGAUCGGAAGAGCACACGUCU [U7C U8G G9U U10G C12U], the “aptazyme ON/OFF ratio” value was 1.12. For GGGUCGCGUGUCUAUAAUCGCGUGGAUAUGGCACGCAAGUUUCUACCGGGCACCGUAAAUGUCCGACUGGAGCCGUUCGGGCGGCUAUAAACAGACCUCAGGCCCGAAGCGUGGCGGCACCUGCCGCCGGUGGUAAAAAAGAUCGGAAGAGCACACGUCU [U7C U8G G9U U10G C13U], the “aptazyme ON/OFF ratio” value was 1.2. For GGGUCGCGUGUCAAUAAUCGCGUGGAUAUGGCACGCAAGUUUCUACCGGGCACCGUAAAUGUCCGACUGGAGCCGUUCGGGCGGCUAUAAACAGACCUCAGGCCCGAAGCGUGGCGGCACCUGCCGCCGGUGGUAAAAAAGAUCGGAAGAGCACACGUCU [U7C U8G G9U U10G C13A], the “aptazyme ON/OFF ratio” value was 1.19. With GGGUCGCGUGUCGAUAAUCGCGUGGAUAUGGCACGCAAGUUUCUACCGGGCACCGUAAAUGUCCGACUGGAGCCGUUCGGGCGGCUAUAAACAGACCUCAGGCCCGAAGCGUGGCGGCACCUGCCGCCGGUGGUAAAAAAGAUCGGAAGAGCACACGUCU [U7C U8G G9U U10G C13G] the “aptazyme ON/OFF ratio” value was 1.17. In the case of GGGUCGCGUGAAUAUAAUCGCGUGGAUAUGGCACGCAAGUUUCUACCGGGCACCGUAAAUGUCCGACUGGAGCCGUUCGGGCGGCUAUAAACAGACCUCAGGCCCGAAGCGUGGCGGCACCUGCCGCCGGUGGUAAAAAAGAUCGGAAGAGCACACGUCU [U7C U8G G9U U10G U11A C12A C13U], the “aptazyme ON/OFF ratio” value is reported as 1.26. In the case of GGGUCGCGUGAAGAUAAUCGCGUGGAUAUGGCACGCAAGUUUCUACCGGGCACCGUAAAUGUCCGACUGGAGCCGUUCGGGCGGCUAUAAACAGACCUCAGGCCCGAAGCGUGGCGGCACCUGCCGCCGGUGGUAAAAAAGAUCGGAAGAGCACACGUCU [U7C U8G G9U U10G U11A C12A C13G], the “aptazyme ON/OFF ratio” value is reported as 1.17. With GGGUCGCGUGAAAAUAAUCGCGUGGAUAUGGCACGCAAGUUUCUACCGGGCACCGUAAAUGUCCGACUGGAGCCGUUCGGGCGGCUAUAAACAGACCUCAGGCCCGAAGCGUGGCGGCACCUGCCGCCGGUGGUAAAAAAGAUCGGAAGAGCACACGUCU [U7C U8G G9U U10G U11A C12A C13A] the “aptazyme ON/OFF ratio” value was 1.18. For GGGUCGCGUGUUAAUAAUCGCGUGGAUAUGGCACGCAAGUUUCUACCGGGCACCGUAAAUGUCCGACUGGAGCCGUUCGGGCGGCUAUAAACAGACCUCAGGCCCGAAGCGUGGCGGCACCUGCCGCCGGUGGUAAAAAAGAUCGGAAGAGCACACGUCU [U7C U8G G9U U10G C12U C13A], the “aptazyme ON/OFF ratio” value was 1.17. In the case of GGGUCGCGUGUUGAUAAUCGCGUGGAUAUGGCACGCAAGUUUCUACCGGGCACCGUAAAUGUCCGACUGGAGCCGUUCGGGCGGCUAUAAACAGACCUCAGGCCCGAAGCGUGGCGGCACCUGCCGCCGGUGGUAAAAAAGAUCGGAAGAGCACACGUCU [U7C U8G G9U U10G C12U C13G], the “aptazyme ON/OFF ratio” value is reported as 1.1. For GGGUCGCGUGUUUAUAAUCGCGUGGAUAUGGCACGCAAGUUUCUACCGGGCACCGUAAAUGUCCGACUGGAGCCGUUCGGGCGGCUAUAAACAGACCUCAGGCCCGAAGCGUGGCGGCACCUGCCGCCGGUGGUAAAAAAGAUCGGAAGAGCACACGUCU [U7C U8G G9U U10G C12U C13U], the “aptazyme ON/OFF ratio” value was 1.32. For GGGUCGCGUGUGAAUAAUCGCGUGGAUAUGGCACGCAAGUUUCUACCGGGCACCGUAAAUGUCCGACUGGAGCCGUUCGGGCGGCUAUAAACAGACCUCAGGCCCGAAGCGUGGCGGCACCUGCCGCCGGUGGUAAAAAAGAUCGGAAGAGCACACGUCU [U7C U8G G9U U10G C12G C13A], the “aptazyme ON/OFF ratio” value was 1.07. For GGGUCGCGUGUGUAUAAUCGCGUGGAUAUGGCACGCAAGUUUCUACCGGGCACCGUAAAUGUCCGACUGGAGCCGUUCGGGCGGCUAUAAACAGACCUCAGGCCCGAAGCGUGGCGGCACCUGCCGCCGGUGGUAAAAAAGAUCGGAAGAGCACACGUCU [U7C U8G G9U U10G C12G C13U], the “aptazyme ON/OFF ratio” value was 1.07. In the case of GGGUCGCGUGUGGAUAAUCGCGUGGAUAUGGCACGCAAGUUUCUACCGGGCACCGUAAAUGUCCGACUGGAGCCGUUCGGGCGGCUAUAAACAGACCUCAGGCCCGAAGCGUGGCGGCACCUGCCGCCGGUGGUAAAAAAGAUCGGAAGAGCACACGUCU [U7C U8G G9U U10G C12G C13G], the “aptazyme ON/OFF ratio” value is reported as 1.08. In the case of GGGUCGCGUGACCAUAAUCGCGUGGAUAUGGCACGCAAGUUUCUACCGGGCACCGUAAAUGUCCGACUGGAGCCGUUCGGGCGGCUAUAAACAGACCUCAGGCCCGAAGCGUGGCGGCACCUGCCGCCGGUGGUAAAAAAGAUCGGAAGAGCACACGUCU [U7C U8G G9U U10G U11A], the “aptazyme ON/OFF ratio” value is reported as 1.13. In the case of GGGUCGCGUGUAGAUAAUCGCGUGGAUAUGGCACGCAAGUUUCUACCGGGCACCGUAAAUGUCCGACUGGAGCCGUUCGGGCGGCUAUAAACAGACCUCAGGCCCGAAGCGUGGCGGCACCUGCCGCCGGUGGUAAAAAAGAUCGGAAGAGCACACGUCU [U7C U8G G9U U10G C12A C13G], the “aptazyme ON/OFF ratio” value is reported as 1.09. In the case of GGGUCGCGUGUAUAUAAUCGCGUGGAUAUGGCACGCAAGUUUCUACCGGGCACCGUAAAUGUCCGACUGGAGCCGUUCGGGCGGCUAUAAACAGACCUCAGGCCCGAAGCGUGGCGGCACCUGCCGCCGGUGGUAAAAAAGAUCGGAAGAGCACACGUCU [U7C U8G G9U U10G C12A C13U], the “aptazyme ON/OFF ratio” value is reported as 1.15. For GGGUCGCGUGAACAUAAUCGCGUGGAUAUGGCACGCAAGUUUCUACCGGGCACCGUAAAUGUCCGACUGGAGCCGUUCGGGCGGCUAUAAACAGACCUCAGGCCCGAAGCGUGGCGGCACCUGCCGCCGGUGGUAAAAAAGAUCGGAAGAGCACACGUCU [U7C U8G G9U U10G U11A C12A], the “aptazyme ON/OFF ratio” value was 1.25.
